± gives the uncertainty stated by the source.
Assay: self-splicing fitness, log relative to wild type (ln ratio); higher = more splicing; Tetrahymena group I intron in knt gene, E. coli kanamycin selection, DiMSum; sequences stand for … in CUCUCU…GGAGGGAAAAGUUAUCAGGCAUGCACCUGGUAGCUAGUCUUUAAACCAAUAGAUUGCAUCGGUUUAAAAGGCAAGACCGUCAAAUUGCGGGAAAGGGGUCAACAGCCGUUCAGUACCAAGUCUCAGGGGAAACUUUGAGAUGGCCUUGCAAAGGGUAUGGUAAUAAGCUGACGGACAUGGUCCUAACCACGCAGCCAAGUCCUAAGUCAACAGAUCUUCUGUUGAUAUGGAUGCAGUUCACAGACUAAAUGUCGGUCGGGGAAGAUGUAUUCUUCUCAUAAGAUAUAGUCGGACCUCUCCUUAAUGGGAGCUAGCGGAUGAAGUGAUGCAACACUGGAGCCGCUGGGAACUAAUUUGUAUGCGAAAGUAUAUUGAUUAGUUUUGGAGUACUCGUGGUCG
Outline: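 Six replicate transformations of E. coli BL21(DE3) with a pET-22b(+) library were grown overnight at 37°C or 30°C. The library randomised all eight P1ex-region intron nucleotides, the intron lying in the knt kanamycin-resistance gene, and plates were LB agar with or without 25 μg/mL kanamycin plus 100 μg/mL carbenicillin, 50 μM IPTG and 0.2% rhamnose. Pooled colonies were amplicon-sequenced on an Illumina HiSeq 2500, and fitness is the DiMSum error-weighted combination of wild-type-normalised replicate fold changes, kanamycin versus none.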

Sequence | self-splicing fitness (ln) (30 °C) | self-splicing fitness (ln) (37 °C)
CUAUAGCAAUAUUACGCUAA | -1.65 ± 0.2 | -2.41 ± 0.32
UGUUAGCAAUAUUACGCAUU | -2.6 ± 0.27 | -1.47 ± 0.2
GGCCAGCAAUAUUACGUCCG | -3.34 ± 0.21 | -0.963 ± 0.14
AUGAAGCAAUAUUACGAGGA | -1.44 ± 0.14 | -2.6 ± 0.2
CCUCAGCAAUAUUACGACGG | -2.74 ± 0.18 | -1.64 ± 0.27
AUGCAGCAAUAUUACGCGCC | -0.788 ± 0.15 | -0.038 ± 0.16
ACGGAGCAAUAUUACGGGAC | -2.93 ± 0.39 | -2.69 ± 0.36
UACUAGCAAUAUUACGUUGG | -2.61 ± 0.14 | -0.807 ± 0.15
UAUCAGCAAUAUUACGAGCC | -3.24 ± 0.34 | -2.33 ± 0.3
GUUGAGCAAUAUUACGAUUC | -0.993 ± 0.12 | 0.00124 ± 0.2
UUGGAGCAAUAUUACGGCCU | -2.26 ± 0.29 | -1.25 ± 0.27
CAGGAGCAAUAUUACGACCA | – | -1.27 ± 0.31
AGUUAGCAAUAUUACGGGAA | -2.22 ± 0.19 | -1.05 ± 0.16
AUUGAGCAAUAUUACGUAGU | -2.08 ± 0.17 | -0.638 ± 0.14
GCGCAGCAAUAUUACGAAGC | -2.98 ± 0.25 | -2.37 ± 0.18
GGGCAGCAAUAUUACGACGA | -0.804 ± 0.11 | -0.442 ± 0.12
CUGAAGCAAUAUUACGCAAU | -3.09 ± 0.24 | -2.67 ± 0.36
AAAUAGCAAUAUUACGCCUA | -0.886 ± 0.13 | -0.23 ± 0.13
GAUAAGCAAUAUUACGAGUC | -3.11 ± 0.27 | -1.32 ± 0.17
AGUUAGCAAUAUUACGCAUU | -3.25 ± 0.25 | -0.806 ± 0.17
AAAUAGCAAUAUUACGCUAC | – | -1.68 ± 0.3

Sequence | self-splicing fitness (ln) (30 °C) | self-splicing fitness (ln) (37 °C)
UAUCAGCAAUAUUACGAUGG | -0.913 ± 0.062 | 0.0535 ± 0.083
GUAGAGCAAUAUUACGAAUU | -2.35 ± 0.21 | -2.01 ± 0.35
UAUCAGCAAUAUUACGGAGC | -3.14 ± 0.17 | -3.71 ± 0.19
CCGCAGCAAUAUUACGUGAG | -0.587 ± 0.038 | -0.367 ± 0.051
CCAGAGCAAUAUUACGUGGC | -1.95 ± 0.18 | -3.77 ± 0.39
GAAAAGCAAUAUUACGAGCU | -0.618 ± 0.069 | -0.352 ± 0.091
AUGCAGCAAUAUUACGCCAG | -2.18 ± 0.13 | -1.23 ± 0.17
GAGAAGCAAUAUUACGUCAC | -3.6 ± 0.29 | -0.67 ± 0.24
UACCAGCAAUAUUACGACGC | -2.41 ± 0.12 | -1.73 ± 0.15
CCGUAGCAAUAUUACGCGCU | -3.4 ± 0.4 | -1.57 ± 0.3
UCGAAGCAAUAUUACGCUAA | – | -2.07 ± 0.36
UGCCAGCAAUAUUACGUAGA | -1.45 ± 0.056 | -0.504 ± 0.065
UAUUAGCAAUAUUACGACUA | -0.146 ± 0.096 | 0.46 ± 0.11
AUGUAGCAAUAUUACGCUGU | -2.92 ± 0.12 | -1.12 ± 0.11
UACUAGCAAUAUUACGGGGG | -2.19 ± 0.12 | -1.31 ± 0.14
AAUUAGCAAUAUUACGUCCG | -1.12 ± 0.18 | -0.444 ± 0.26
GUCCAGCAAUAUUACGUGGC | -3.97 ± 0.24 | -3.46 ± 0.39
GGUUAGCAAUAUUACGCUCA | -1.34 ± 0.2 | -0.632 ± 0.19
GCGCAGCAAUAUUACGUGCU | -4.09 ± 0.2 | -2.87 ± 0.23
UCUAAGCAAUAUUACGCUGC | -3.41 ± 0.19 | -2.84 ± 0.19
UUAUAGCAAUAUUACGUAUA | -2.29 ± 0.15 | -1.42 ± 0.13

Sequence | self-splicing fitness (ln) (30 °C) | self-splicing fitness (ln) (37 °C)
UAGAAGCAAUAUUACGUCGU | -1.75 ± 0.097 | -0.904 ± 0.1
UUCAAGCAAUAUUACGUACA | -0.901 ± 0.11 | -0.478 ± 0.13
UACUAGCAAUAUUACGGGGC | -3.02 ± 0.3 | -2.5 ± 0.44
CUAGAGCAAUAUUACGCCAU | -3.39 ± 0.19 | -3.11 ± 0.29
AAUUAGCAAUAUUACGGCAU | 0.0829 ± 0.11 | 0.351 ± 0.11
UGUCAGCAAUAUUACGCCCC | -0.691 ± 0.29 | 0.0501 ± 0.3
GGACAGCAAUAUUACGAGAU | -3.03 ± 0.14 | -1.45 ± 0.13
CCUCAGCAAUAUUACGCAUA | -2.47 ± 0.17 | -2.19 ± 0.17
UACAAGCAAUAUUACGCGCA | -0.13 ± 0.081 | 0.163 ± 0.11
AAGCAGCAAUAUUACGGUUG | -3.08 ± 0.14 | -2.01 ± 0.15
UGGAAGCAAUAUUACGGGAA | -2.15 ± 0.21 | -1.19 ± 0.16
CGAGAGCAAUAUUACGUGCU | -4.22 ± 0.46 | –
AUUCAGCAAUAUUACGGUGC | -2.13 ± 0.16 | -0.156 ± 0.14
CCCUAGCAAUAUUACGCACC | – | -2.9 ± 0.48
UUAGAGCAAUAUUACGUCGA | -1.18 ± 0.12 | 0.172 ± 0.14
CAUAAGCAAUAUUACGGACG | 0.133 ± 0.093 | 0.568 ± 0.12
CCCGAGCAAUAUUACGCCUG | -4.16 ± 0.39 | –
UGGGAGCAAUAUUACGUAGU | – | -1.82 ± 0.28
GGAAAGCAAUAUUACGGCAC | -0.927 ± 0.12 | -0.0107 ± 0.14
GGUAAGCAAUAUUACGGCCU | -2.34 ± 0.33 | –
UGCGAGCAAUAUUACGAGAG | -2.89 ± 0.15 | –
